From the RNAGym collection of RNA variant scans (doi:10.7554/elife.80360) come the findings set out here.

To fix the notation:
B1: Hairpin Ribozyme (parent)
chain: GUCCUCUUUCACGUGCGCGUGAAAGAGAGAAGUGAACCAGAGAAACACACGUUGUGGUAUAUUACCUGGUA

Variants of B1 are the subject of the series. In words: self-cleavage, relative activity (ratio to wild type); higher = more cleavage; co-transcriptional.
Regarding A28U U67A, the self-cleavage turned out to be 0.0994.

In the case of A28U U67C, the self-cleavage was determined as 0.12.

As to A30C C66A, the self-cleavage stood at 0.0863.

A28G A36C: the self-cleavage is 0.778.

In the case of A28C C37G, the self-cleavage turned out to be 0.199.

In the case of G29U G51A, the self-cleavage was determined as 0.139.

For the variant G29U G51U, the self-cleavage worked out at 0.121.

Turning to G29A G69A, the self-cleavage is 0.117.

As for G29C G56U, the self-cleavage is 0.0807.

As for G29C G51C, the self-cleavage was found to be 0.103.

G29C G51A: the self-cleavage was determined as 0.125.

Turning to A28G A41U, the self-cleavage was determined as 1.05.

G29C C46A: the self-cleavage turned out to be 0.111.

Turning to G29C C46U, the self-cleavage was found to be 0.171.

On to G29C U53C, for which the self-cleavage was found to be 0.252.

On to G29A A43U, for which the self-cleavage came out at 0.0816.

On to G29A A43G, for which the self-cleavage came out at 0.205.

A30C G42A: the self-cleavage was 0.0752.

On to A30C G42C, for which the self-cleavage amounted to 0.094.

On to A30C G42U, for which the self-cleavage stood at 0.111.

As to G29C U55A, the self-cleavage amounted to 0.164.

Consider A28G U33G, for which the self-cleavage was found to be 0.211.

For G29A C65G, the self-cleavage came out at 0.158.

Regarding G29A C65A, the self-cleavage is 0.0759.

Consider G29U G57A, for which the self-cleavage was found to be 0.172.

Turning to G27U C65U, the self-cleavage was 0.125.

On to G27U C65G, for which the self-cleavage stood at 0.188.

For the variant A28C A64C, the self-cleavage was found to be 0.245.

Regarding A28C A64G, the self-cleavage was 0.285.

Regarding A28C A64U, the self-cleavage stood at 0.237.

For G29C U33C, the self-cleavage was determined as 0.224.

With G29C U33G, the self-cleavage is 0.13.

Turning to G29A C50A, the self-cleavage is 0.168.

As for G27U G42U, the self-cleavage was 0.188.

A30C G56C: the self-cleavage turned out to be 0.0453.

As to A30C G56A, the self-cleavage was determined as 0.194.

In the case of A30C A35U, the self-cleavage came to 0.156.

Turning to A30C A35G, the self-cleavage was 0.217.

In the case of G29U, the self-cleavage is 0.132.

Consider G29A, for which the self-cleavage is 0.126.

For G29C, the self-cleavage is 0.133.

Turning to A28U A45C, the self-cleavage worked out at 0.0951.

As to A28U A45U, the self-cleavage is 0.224.

Regarding G29U A64C, the self-cleavage is 0.142.

For the variant G27U C48U, the self-cleavage turned out to be 0.099.

Take G27U G54A: the self-cleavage came to 0.26.

Regarding G27U G54C, the self-cleavage was determined as 0.133.

For G27U G54U, the self-cleavage was 0.208.

With G29U U60A, the self-cleavage is 0.169.

As for G29C A41U, the self-cleavage was 0.103.

On to A28U U58C, for which the self-cleavage is 0.58.

As to G29U G54C, the self-cleavage was 0.12.

Regarding G29U U52C, the self-cleavage came out at 0.178.

Take G29U C65G: the self-cleavage amounted to 0.0526.

For A28G C66A, the self-cleavage amounted to 0.231.

With G29A U63A, the self-cleavage is 0.124.

As to G29A U63G, the self-cleavage was 0.116.

Turning to A28G A47G, the self-cleavage is 0.198.

As to G29A A31G, the self-cleavage amounted to 0.145.

As for G29A A31U, the self-cleavage was found to be 0.178.

In the case of A28G G40C, the self-cleavage turned out to be 0.166.

With G29A U52C, the self-cleavage was 0.156.

For A28C U70C, the self-cleavage is 0.426.

On to A28C U70G, for which the self-cleavage worked out at 0.322.

With G29A A64C, the self-cleavage worked out at 0.115.

With G29A A64U, the self-cleavage came to 0.134.

For G29U G34U, the self-cleavage is 0.124.

In the case of A28U A30C, the self-cleavage was 0.167.

As for A28U A30G, the self-cleavage came to 0.0577.

Consider G29A U60A, for which the self-cleavage turned out to be 0.137.

As to G29A U60C, the self-cleavage was 0.144.

For G29A U60G, the self-cleavage was 0.0375.

As for G29A A41C, the self-cleavage worked out at 0.053.

Take G29A A41G: the self-cleavage was 0.106.

Regarding G29C U67G, the self-cleavage came to 0.12.

Consider A28G U52A, for which the self-cleavage was 0.814.

In the case of A28C G40A, the self-cleavage came out at 0.131.

Turning to A28U C50U, the self-cleavage was found to be 0.1.

In the case of A30C C50A, the self-cleavage was determined as 0.0998.

For A28U U63A, the self-cleavage was found to be 0.128.

Take A28C A61G: the self-cleavage is 0.1.

Take A28U C66A: the self-cleavage was found to be 0.194.

Take G29A A30G: the self-cleavage turned out to be 0.135.

On to G29A A47G, for which the self-cleavage came out at 0.244.

For G27U G69C, the self-cleavage worked out at 0.2.

G27U G69A: the self-cleavage is 0.0822.

For the variant G27U G69U, the self-cleavage worked out at 0.152.

Take A28U A36G: the self-cleavage came to 0.656.

As for G29A A44C, the self-cleavage was 0.17.

Consider G29A A44G, for which the self-cleavage turned out to be 0.113.

With A28C C65U, the self-cleavage turned out to be 0.249.

In the case of A28C C65A, the self-cleavage stood at 0.231.

As for A28U U55A, the self-cleavage was found to be 0.235.

In the case of A28G U67G, the self-cleavage is 0.294.

Regarding G29U G40U, the self-cleavage was 0.147.

As to G29U G40A, the self-cleavage came out at 0.121.

In the case of G29U G40C, the self-cleavage was 0.0749.

Turning to G29U A61G, the self-cleavage was determined as 0.223.

A28U U53C: the self-cleavage was 0.769.

Turning to A28G G56U, the self-cleavage was found to be 0.165.

As to A28G G56C, the self-cleavage amounted to 0.0641.

Consider A28G G56A, for which the self-cleavage was 0.296.

Regarding G27U C66A, the self-cleavage is 0.169.

A30C C48G: the self-cleavage turned out to be 0.126.

Take A28C A41G: the self-cleavage was determined as 0.352.

As to A30C A64C, the self-cleavage worked out at 0.127.

As to A30C A64U, the self-cleavage worked out at 0.211.

As for A30C A64G, the self-cleavage came to 0.0788.

Take G29A G51U: the self-cleavage turned out to be 0.0861.

In the case of G29A G51A, the self-cleavage is 0.138.

For the variant G27U G40A, the self-cleavage worked out at 0.117.

G29U C38U: the self-cleavage came to 0.1.

For G29A G56U, the self-cleavage turned out to be 0.111.

Turning to A30C C37G, the self-cleavage was 0.277.

In the case of A30C C37U, the self-cleavage was determined as 0.0704.

Turning to A28C A59C, the self-cleavage was found to be 0.

With A28U A43C, the self-cleavage came to 0.133.

Turning to A28U A43U, the self-cleavage is 0.132.

For A28U U60G, the self-cleavage came out at 0.3.

As to G29A A36C, the self-cleavage worked out at 0.0858.

As to G29A A36U, the self-cleavage is 0.278.

As to A28U G34C, the self-cleavage is 1.23.

For A28U G34U, the self-cleavage worked out at 1.41.

For A28C U33A, the self-cleavage was 0.145.

On to A28C U33G, for which the self-cleavage worked out at 0.

Consider G27U U62G, for which the self-cleavage turned out to be 0.0869.

As for A28C A39G, the self-cleavage came to 0.171.

Consider G29C A64U, for which the self-cleavage stood at 0.192.

As for A30C U55G, the self-cleavage was 0.0965.

Regarding A28C G68U, the self-cleavage stood at 0.214.

As for A28C G68A, the self-cleavage came out at 0.182.

With G29U A43C, the self-cleavage amounted to 0.0797.

For A28G U58G, the self-cleavage stood at 0.91.

In the case of A28G U58C, the self-cleavage stood at 0.791.

For A30C A47G, the self-cleavage came to 0.0558.

Turning to G29U G42U, the self-cleavage is 0.107.

Turning to G29A A49G, the self-cleavage turned out to be 0.138.

With A28U G57A, the self-cleavage worked out at 0.152.

Regarding A28U G69C, the self-cleavage is 0.219.

On to G29C A44U, for which the self-cleavage was 0.18.

For G27U U52C, the self-cleavage amounted to 0.377.

With G27U U52G, the self-cleavage came out at 0.114.

In the case of A28C G56A, the self-cleavage was 0.137.

Consider A28C G56U, for which the self-cleavage came to 0.0871.

With G29C A43U, the self-cleavage was found to be 0.0794.

Turning to G29U G56U, the self-cleavage was 0.143.

As to A28C C50U, the self-cleavage was found to be 0.168.

With G29U A47G, the self-cleavage is 0.0517.

Turning to A28G A43C, the self-cleavage is 0.153.

A28C U52C: the self-cleavage stood at 0.584.

With A28U A31C, the self-cleavage stood at 0.251.

Consider A28G G69U, for which the self-cleavage was 0.331.

Consider A28G A31C, for which the self-cleavage was 0.113.

With G29U U63C, the self-cleavage stood at 0.084.

As for A28C A49U, the self-cleavage was 0.192.

With A28C A49G, the self-cleavage was determined as 0.173.

For G29A C38U, the self-cleavage is 0.19.

Turning to G27U U55A, the self-cleavage stood at 0.152.

G29C A31G: the self-cleavage was 0.187.

With A28G U62C, the self-cleavage came out at 0.302.

As for G29A A59G, the self-cleavage was 0.162.

In the case of G29A A59C, the self-cleavage stood at 0.138.

Consider G29A G40A, for which the self-cleavage worked out at 0.133.

Turning to A28G A45C, the self-cleavage was determined as 0.279.

As for A28C A44U, the self-cleavage is 0.046.

For the variant A30C A41C, the self-cleavage turned out to be 0.315.

For the variant A28G G54C, the self-cleavage turned out to be 0.432.
